{"source": "patent US20220324953A1", "about": "(JIANGSU HENGRUI MEDICINE, published 2022)", "binders": {"B1": {"name": "Hu164-57wl (antibody, human IgG1, lambda, V domains shown)", "VH": "EVTLKESGPVLVKPTETLTLTCTVSGFSLSTFGVHWIRQPPGKALEWLAVIWRRGGTDYNAAFMSRLTISKDTSKSQVVLTMTNMDPVDTATYYCARDGGFDYWGQGTTVTVSS", "VL": "ETVVTQEPSLTVSPGGTVTLTCRSSIGAVTTSNYANWVQQKPGQAFRGLIGGTSNRAPWTPARFSGSLLGGKAALTLSGVQPEDEAEYYCALWYSTHYVFGGGTKLTVLG"}}, "key": {"[1]": {"target": "T1, human CTGF protein (R&D, Cat No. 9190-CC) (human, UniProt P29279 27-349)", "T1 construct": "Bought protein; also called CTGF recombinant protein; CTGF (R&D)", "T1 sequence": "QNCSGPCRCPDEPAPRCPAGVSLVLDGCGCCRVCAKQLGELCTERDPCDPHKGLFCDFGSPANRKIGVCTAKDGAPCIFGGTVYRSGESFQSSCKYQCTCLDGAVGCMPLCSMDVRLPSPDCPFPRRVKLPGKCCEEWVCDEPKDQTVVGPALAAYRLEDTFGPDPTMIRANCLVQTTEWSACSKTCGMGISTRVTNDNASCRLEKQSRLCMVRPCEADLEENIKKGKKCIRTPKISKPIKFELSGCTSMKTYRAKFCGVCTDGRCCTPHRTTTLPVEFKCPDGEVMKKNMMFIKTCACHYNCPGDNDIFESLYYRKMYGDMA", "test": "ELISA, plate coated with CTGF (R&D 9190-CC)", "summary_of_the_method": "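Plates were coated with recombinant human CTGF at 0.2 μg/ml in PBS pH 7.4 and blocked with 5% skim milk. Antibodies at serial concentrations were incubated 1 h at 37 °C, then detected with HRP anti-mouse or anti-human secondary and TMB at 450 nm. EC50 values were derived from the binding curves.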"}, "[2]": {"target": "T2, Mouse CTGF protein-His tag (mouse, UniProt P29268 26-348)", "T2 construct": "C-terminal His tag; also called mouse CTGF-his protein; mouse CTGF fusion protein", "T2 sequence": "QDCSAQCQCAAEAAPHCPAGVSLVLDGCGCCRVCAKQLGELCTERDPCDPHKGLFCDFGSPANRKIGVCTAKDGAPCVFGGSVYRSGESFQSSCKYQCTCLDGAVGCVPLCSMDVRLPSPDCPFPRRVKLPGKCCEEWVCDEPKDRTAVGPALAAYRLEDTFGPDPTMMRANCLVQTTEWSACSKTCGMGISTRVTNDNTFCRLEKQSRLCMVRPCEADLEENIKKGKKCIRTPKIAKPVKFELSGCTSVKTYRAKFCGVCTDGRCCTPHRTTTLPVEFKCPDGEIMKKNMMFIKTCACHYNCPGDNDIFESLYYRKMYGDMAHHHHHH", "test": "ELISA, plate coated with mouse CTGF-his", "description": "The binding activity of anti-mouse CTGF antibody to mouse CTGF protein was tested by ELISA assay. A 96-well microtiter plate was directly coated with the mouse CTGF fusion protein. The signal strength upon the addition of the antibody was used to determine the binding activity of the antibody to mouse CTGF. The specific experimental procedures were as follows:\nThe mouse CTGF-his protein was diluted with PBS, pH 7.4 (Shanghai Yuanpei, Cat No. B320) buffer to a concentration of 0.5 μg/ml, added into the 96-well microtiter plate (Corning, Cat No. CLS3590-100EA) at 50 μl/well, and incubated in an incubator at 37° C. for 2 hours. The liquid was removed, 250 μl/well blocking solution (5% skim milk (BD skim milk, Cat No. 232100) diluted in PBS) was added, and incubated in an incubator at 37° C. for 3 hours or at 4° C. overnight (16-18 hours) for blocking. After the blocking was finished, the blocking solution was removed, the plate was washed for 3 times with PBST buffer (PBS containing 0.1% Tween-20, pH 7.4), 50 μl/well of various concentrations of each of the test antibodies (antibodies purified from hybridoma or humanized antibodies) diluted with sample dilution solution were added, and incubated in an incubator at 37° C. for 1 hours. After the incubation was finished, the plate was washed for 3 times with PBST, 50 μl/well of HRP-labeled goat anti-mouse secondary antibody (Jackson Immuno Research, Cat No. 115-035-003) or goat anti-human secondary antibody (Jackson Immuno Research, Cat No. 109-035-003) diluted with sample dilution solution was added, and incubated at 37° C. for 1 hour. The plate was washed for 5 times with PBST, 50 μl/well of TMB chromogenic substrate (KPL, Cat No. 52-00-03) was added, incubated at room temperature for 5-10min, and 50 μl/well of 1 M H₂SO₄ was added to stop the reaction. The absorbance value was read by a microplate reader (Molecular Devices, VERSA max) at a wavelength of 450 nm, and the data was analyzed with GraphPad Prism 5. The binding of CTGF antibody to mouse CTGF protein was calculated as EC50 value."}}, "data": [{"binder": "B1", "values": [{"measurement": "EC50", "setting": "[1]", "value": 0.044, "unit": "nM"}, {"measurement": "EC50", "setting": "[2]", "value": 0.041, "unit": "nM"}]}]}
